The test concerns the target T1, PRDX1 (peroxiredoxin 1), endogenous in TM3 cells (mouse (endogenous in TM3)), P35700.
T1 chain: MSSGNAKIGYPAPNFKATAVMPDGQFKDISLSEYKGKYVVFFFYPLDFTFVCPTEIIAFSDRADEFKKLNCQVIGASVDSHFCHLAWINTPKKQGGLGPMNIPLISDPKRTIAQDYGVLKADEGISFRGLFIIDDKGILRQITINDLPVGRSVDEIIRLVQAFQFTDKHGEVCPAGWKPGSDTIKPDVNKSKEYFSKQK
Description: SDS-PAGE under DTT-free conditions with western blot. Conditions: remark: other sources report otherwise.

Broadly, the stoichiometry N is a count of units in the complex or per binding partner.

B1: PRDX1 (peroxiredoxin 1), endogenous in TM3 cells, P35700 1-199 (enzyme)
chain: MSSGNAKIGYPAPNFKATAVMPDGQFKDISLSEYKGKYVVFFFYPLDFTFVCPTEIIAFSDRADEFKKLNCQVIGASVDSHFCHLAWINTPKKQGGLGPMNIPLISDPKRTIAQDYGVLKADEGISFRGLFIIDDKGILRQITINDLPVGRSVDEIIRLVQAFQFTDKHGEVCPAGWKPGSDTIKPDVNKSKEYFSKQK
Regarding B1, the stoichiometry N is 2.

For the origin of these results see article PMC12630831.
